Measurements as given in patent US20240117062A1 (Sanofi, published 2024).
Residue numbers refer to the chain shown, from its start.

B1: CA10_parental (antibody, V domains shown)
VH: QVQLVESGGGVVQPGRSLRLSCAASGFTFSNFGMHWVRQAPGRGLEWVAVIWSDETNRYYADSVKGRFTVSRDNVKSTVYLQMNSLISEDTAVYYCARDQQYCSSDSCFTWFDPWGQGTLVTVSS
VL: QVVVTQESALTTSPGETVTLTCRSSTGTVTPSNYANWVQEKPDHFFTGLIGDNNSRPPGVPARFSASLIGDKAALTITGAQTEDEAMYFCALWFGNQWVFGGGTKVTVL
notes: tested as a mAb purified on mAbSelect SuRe; also called CA10_V2_parental; CA10 WT
B2: CA10 Variant 5 (CA10_PE_V5) (antibody, V domains shown)
VH: B1 VH
VL: QTVVTQEPSLTVSPGGTVTLTCASSTGAVTSGYYANWVQQKPGQAPRALIGDNNIKPSWTPARFSGSLLGGKAALTLSGVQPEDEAEYYCALYYGGQWVFGGGTKLTVL
B3: CA10 Variant 2 (antibody, V domains shown)
VH: B1 VH
VL: QTVVTQEPSLTVSPGGTVTLTCASSTGTVTPSNYANWVQQKPGQAPRGLIGDNNSRPPGTPARFSASLLGGKAALTLSGVQPEDEAEYYCALWFGNQWVFGGGTKLTVL
B4: CA10 Variant 3 (antibody, V domains shown)
VH: B1 VH
VL: B2 VL with S31P, G32S, Y33N, A48G, S58P, Y93W
B5: CA10 Variant 1 (antibody, V domains shown)
VH: B1 VH
VL: B3 VL with A23R, G43D, Q44H, A45F, P46F, R47T, T60V, L69I, G71D
B6: CA10 Variant 6 (antibody, V domains shown)
VH: B1 VH
VL: B3 VL with A45F
B7: CA10 Variant 4 (antibody, V domains shown)
VH: B1 VH
VL: B2 VL with S31P, A48G, I55N, S58P

Target: T1, Cyno BCMA-Avi-His (cynomolgus, UniProt A0A2K5UD97 2-53)
T1 construct: SPR analyte; also called cynomolgus BCMA Avi-His protein
Assay: SPR (Biacore T100), antibody captured on Protein A chip, antigen as analyte
Description: (§1) 1×HBS-EP+ was prepared in MilliQ water, filtered, and degassed. A BIACORE™ T100 was primed with 1×HBS-EP+. The immobilized chip […] BIACORE™ control software was used.
(§2) The antibodies were diluted to 20 μg/mL in HBS-EP+. Seven 1:1 serial dilutions of the antigens were prepared (80 nM final concentration), and 1×HBS-EP+ was used as a 0 nm control. 1×HBS-EP+ was used for start-up injections and HCl (12 mM) was used for regeneration. The samples were run, and the data were analyzed using the BIACORE™ T100 software.

T1 sequence (A0A2K5UD97 entry or part of it): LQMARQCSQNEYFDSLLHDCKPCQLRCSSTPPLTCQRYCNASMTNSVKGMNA

| Binder | binding result |
| --- | --- |
| B1 | binds |
| B2 | no binding (tested: antigen up to 80 nM) |
| B3 | binds |
| B4 | binds |
| B5 | binds |
| B6 | binds |

Target: T2, Cyno BCMA DTA-His (cynomolgus)
T2 construct: SPR analyte, Mw 28,203 Da; also called Cyno DTA His; cynomolgus BCMA DTA-His protein
Assay: as above
Description: as §1, §2

T2 sequence (P00588 32-225, tags or fused parts left off): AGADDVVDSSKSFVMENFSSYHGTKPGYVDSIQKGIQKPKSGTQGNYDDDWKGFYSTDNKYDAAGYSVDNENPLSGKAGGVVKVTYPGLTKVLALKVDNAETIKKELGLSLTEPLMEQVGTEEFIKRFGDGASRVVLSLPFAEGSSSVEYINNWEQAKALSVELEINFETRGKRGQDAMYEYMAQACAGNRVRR

| Binder | binding result |
| --- | --- |
| B2 | no binding (tested: antigen up to 80 nM) |

Target: T3, Human BCMA-Avi-His (human, UniProt Q02223 2-54)
T3 construct: SPR analyte; also called human BCMA Avi-His protein
T3 sequence (looked up): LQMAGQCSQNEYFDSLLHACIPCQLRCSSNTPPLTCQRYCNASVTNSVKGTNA
Assay: as above
Description: as §1, §2

| Binder | binding result |
| --- | --- |
| B1 | binds |
| B3 | binds |
| B4 | binds |
| B5 | binds |
| B6 | binds |

Target: T4, cynomolgus BCMA protein (ELISA antigen) (cynomolgus, UniProt A0A2K5UD97 1-53)
T4 construct: also called Cyno BCMA; BCMA antigen
Assay: ELISA on coated BCMA antigen
Description: A solution of BCMA antigen (2 μg/mL or 1 mg/mL biotinylated BCMA antigen when Streptavidin coated plate is used) was prepared in phosphate buffered saline (PBS). The antigen solution was added to 96-well plates (50 μL per well) and was incubated at 4° C. overnight. The plates were blocked with 250 μL per well of PBSA (PBS containing 1% BSA) for 2 hr at 37° C., then washed with 200 μL per well of phosphate buffered saline (PBS) three times. Hybridoma sup (50 μL) or 1 mg/mL of purified test or control (positive and negative) antibody (50 μL) were added per well in the 96-well plate and were incubated for 1 hour at room temperature. The plates were washed with 200 μl per well of PBS, three times, then horse radish peroxidase (HRP) conjugated secondary antibody diluted at 1:5,000 in PBSA (50 μl per well) was added and incubated for 1 hour at room temperature. Then, the plates were washed with 200 μl per well of PBS, three times. The tetramethylbenzidine dihydrochloride (TMB) substrate was prepared by mixing with both Solution A and Solution B (1:1) in a 15 mL conical tube, then 50 μL of the substrate was added to the wells. The color was allowed to develop for 1-5 minutes, then 50 μL of the stop solution was added to each well. The absorbance was read using a SpectraMax (Molecular Devices) at 450 nm.

T4 sequence (A0A2K5UD97 entry or part of it): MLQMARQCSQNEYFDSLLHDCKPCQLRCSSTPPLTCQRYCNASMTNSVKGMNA

| Binder | binding result |
| --- | --- |
| B2 | no binding |

Target: T5, BCMA protein on MM1R cells (UniProt Q02223 1-184, limits assumed)
T5 construct: whole, on cells; also called BCMA proteins on MM1R cell membrane surfaces
T5 sequence (looked up): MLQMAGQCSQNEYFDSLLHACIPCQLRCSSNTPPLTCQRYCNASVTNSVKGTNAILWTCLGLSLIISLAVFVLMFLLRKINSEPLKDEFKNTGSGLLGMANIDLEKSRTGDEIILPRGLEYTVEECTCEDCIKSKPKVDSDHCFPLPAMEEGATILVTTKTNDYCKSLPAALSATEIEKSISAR
Assay: flow cytometry on MM1R cells
Description: HEK 293 cells or MM1R cells (0.5×10⁶) were aliquoted into separate FACS tubes and were labelled as unstained, test sample or positive control. Hybridoma sup (20 μL) or purified CA10 or positive control (1 μg/mL, 5 μL) were added to the cells and incubated on ice for 30 minutes. […] The supernatant was poured off and the cells were gently vortexed to mix. 50 μL of 1:500 dilution of FITC conjugated goat anti-human (or mouse) H+L specific secondary antibody was added to the cells, and the cells were incubated on ice or at 4° C. for 30 minutes in the dark. […] The supernatant was discarded, and the cells were resuspended in 150-200 μL of FACS buffer. The cells were acquired on a BD FACS Canto and data analyzed using Flojo V10. Software.

| Binder | binding result |
| --- | --- |
| B1 | binds |
| B3 | binds |
| B4 | binds |
| B5 | binds |
| B7 | binds |
| B6 | binds |
